According to paper PMC10815921, “Mimicking Protein Kinase C Phosphorylation Inhibits Arc/Arg3.1 Palmitoylation and Its Interaction with Nucleic Acids” (International Journal of Molecular Sciences, 2024):

B1: Arc S84,90E phosphomimetic mutant (natural protein, mouse, UniProt Q9WV31 1-396, looked up)
chain: MELDHMTTGGLHAYPAPRGGPAAKPNVILQIGKCRAEMLEHVRRTHRHLLTEVSKQVERELKGLHRSVGKLENNLDGYVPTGDEQRWKKEIKACLCRCQETIANLERWVKREMHVWREVFYRLERWADRLESMGGKYPVGSEPARHTVSVGVGGPEPYCQEADGYDYTVSPYAITPPPAAGELPEQESVEAQQYQSWGPGEDGQPSPGVDTQIFEDPREFLSHLEEYLRQVGGSEEYWLSQIQNHMNGPAKKWWEFKQGSVKNWVEFKKEFLQYSEGTLSREAIQRELELPQKQGEPLDQFLWRKRDLYQTLYVDAEEEEIIQYVVGTLQPKLKRFLRHPLPKTLEQLIQRGMEVQDGLEQAAEPSGTPLPTEDETEALTPALTSESVASDRTQPE
notes: Arc (Arg3.1), mouse, with serines 84 and 90 mutated to glutamic acid; source: E. coli Rosetta 2, purified (glutathione resin, released with TEV protease); not shown: GST, N-terminal, cleaved
B2: Arc ΔH1 (aa 33–70 deleted) (natural protein, mouse, UniProt Q9WV31 1-396, looked up)
chain: MELDHMTTGGLHAYPAPRGGPAAKPNVILQIGLENNLDGYVPTGDSQRWKKSIKACLCRCQETIANLERWVKREMHVWREVFYRLERWADRLESMGGKYPVGSEPARHTVSVGVGGPEPYCQEADGYDYTVSPYAITPPPAAGELPEQESVEAQQYQSWGPGEDGQPSPGVDTQIFEDPREFLSHLEEYLRQVGGSEEYWLSQIQNHMNGPAKKWWEFKQGSVKNWVEFKKEFLQYSEGTLSREAIQRELELPQKQGEPLDQFLWRKRDLYQTLYVDAEEEEIIQYVVGTLQPKLKRFLRHPLPKTLEQLIQRGMEVQDGLEQAAEPSGTPLPTEDETEALTPALTSESVASDRTQPE
notes: Arc (Arg3.1), mouse, lacking helix H1 (residues 33-70); Made by PCR from the full-length GST-Arc construct; source: E. coli Rosetta 2, purified (glutathione resin, released with TEV protease; with or without 35% ammonium sulfate precipitation); not shown: GST, N-terminal, cleaved

Tests used:
[1] = molecular target: the molecule itself; experiment: dynamic light scattering; ~20 µM, 25 °C, 20 mM HEPES pH 7.5, 100 mM NaCl, 1 mM TCEP; Arc^WT was ammonium sulfate-treated (nucleotide-free)
[2] = molecular target: the molecule itself; experiment: SEC; HiLoad 16/600 Superdex 200, solution B (20 mM HEPES pH 7.5, 100 mM NaCl, 0.5 mM TCEP), 4 °C; proteins prepared without ammonium sulfate treatment (bound nucleic acids kept); loads 25-70 µM

Protein | binding result [1] | binding result [2]
B1 | binds | 
B2 |  | binds
